# Reference: patent publication US20210061908A1 (IOMX THERAPEUTICS, published 2021)
# T1: IGSF11 (VSIG3), construct used in SPR and BLI not stated (UniProt Q5DX21 23-241, limits assumed)
# T1 sequence (looked up): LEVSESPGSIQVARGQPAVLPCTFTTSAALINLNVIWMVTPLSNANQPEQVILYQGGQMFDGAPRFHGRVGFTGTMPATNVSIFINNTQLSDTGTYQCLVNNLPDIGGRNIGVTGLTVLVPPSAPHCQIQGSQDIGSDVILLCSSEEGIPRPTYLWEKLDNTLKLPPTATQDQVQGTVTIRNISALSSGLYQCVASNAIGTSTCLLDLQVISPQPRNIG
# T2: extracellular domain (ECD) of human IGSF11 (VSIG3), HIS-tagged (human, UniProt Q5DX21 23-241, biotinylated in the ELISA of Example 4 (site not stated))
# T2 construct: also called HIS-IGSF11; IGSF11-HIS; not shown: HIS6 tag
# T2 sequence: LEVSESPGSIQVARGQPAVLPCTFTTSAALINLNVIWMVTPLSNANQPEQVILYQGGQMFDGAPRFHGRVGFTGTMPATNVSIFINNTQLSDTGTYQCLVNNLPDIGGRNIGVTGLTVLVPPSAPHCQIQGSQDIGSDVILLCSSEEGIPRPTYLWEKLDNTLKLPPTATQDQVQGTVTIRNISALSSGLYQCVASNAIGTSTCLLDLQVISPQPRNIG
# B1: human IGSF11 (VSIG3) expressed on the surface of cells (receptor)
# chain: LEVSESPGSIQVARGQPAVLPCTFTTSAALINLNVIWMVTPLSNANQPEQVILYQGGQMFDGAPRFHGRVGFTGTMPATNVSIFINNTQLSDTGTYQCLVNNLPDIGGRNIGVTGLTVLVPPSAPHCQIQGSQDIGSDVILLCSSEEGIPRPTYLWEKLDNTLKLPPTATQDQVQGTVTIRNISALSSGLYQCVASNAIGTSTCLLDLQVISPQPRNIGLIAGAIGTGAVIIIFCIALILGAFFYWRSKNKEEEEEEIPNEIREDDLPPKCSSAKAFHTEISSSDNNTLTSSNAYNSRYWSNNPKVHRNTESVSHFSDLGQSFSFHSGNANIPSIYANGTHLVPGQHKTLVVTANRGSSPQVMSRSNGSVSRKPRPPHTHSYTISHATLERIGAVPVMVPAQSRAGSLV
# notes: one molecule for all cell lines; the cell line is named under assay; also called IGSF11-expressing cells; HEK-OE
# Key:
# [1] = target: CL-11 (C); assay: FACS on CL-11 cells (do not express IGSF11; negative cell line) treated with IGSF11 siRNA (KD)
# [2] = target: B1; assay: FACS, IgG1 format, recombinant HEK cells expressing IGSF11 (HEK-OE)
# [3] = target: CL-11 (C); assay: FACS on CL-11 cells (do not express IGSF11; negative cell line) treated with scrambled control siRNA (SC)
# [4] = target: B1; assay: FACS on DMS 273 cells treated with IGSF11 siRNA (KD: target knocked down, specificity control)
# [5] = target: B1; assay: FACS on DMS 273 cells treated with scrambled control siRNA (SC)
# [6] = target: B1; assay: FACS on M579-A2-luc cells treated with IGSF11 siRNA (KD: target knocked down, specificity control)
# [7] = target: T1, IGSF11 (VSIG3), construct used in SPR …; assay: SPR (Biacore), chain-swapped IgG1; IGSF11 construct not stated
# [8] = target: T2, extracellular domain (ECD) of human …; assay: ELISA: IGSF11-HIS coated, IgG1 antibody titrated, anti-human antibody-HRP and TMB; X-axis nM and Y-axis absorbance per legend paragraph 30 [B]
# [9] = target: T2, extracellular domain (ECD) of human …; assay: blocking ELISA (Example 5): IgG titrated and pre-incubated with 200 nM his-tagged IGSF11 ECD, complexes added to immobilised VSIR-Fc, bound IGSF11 detected with anti-hexahistidine-HRP; blocked ligand: VSIR-Fc [B]
# [10] = target: B1; assay: FACS, IgG1 format, DMS 273 cells
# [11] = target: B1; assay: FACS on M579-A2-luc cells treated with scrambled control siRNA (SC)
# [12] = target: T1, IGSF11 (VSIG3), construct used in SPR …; assay: BLI (Octet), IgG1 format; IGSF11 construct not stated
# [13] = target: T2, extracellular domain (ECD) of human …; assay: ELISA: IGSF11-HIS coated, IgG1 antibody titrated, anti-human antibody-HRP and TMB; X-axis nM and Y-axis absorbance per legend paragraph 30
# [14] = target: T1, IGSF11 (VSIG3), construct used in SPR …; assay: SPR (Biacore), IgG1 format; IGSF11 construct not stated
# [15] = target: T2, extracellular domain (ECD) of human …; assay: ELISA, coated IGSF11-HIS, IgG1 format; EC50 grade (* >1 nM, ** 0.05-1 nM, *** 0.02-0.05 nM, **** <0.02 nM)
# [16] = target: T2, extracellular domain (ECD) of human …; assay: blocking ELISA (Example 5): IgG titrated and pre-incubated with 200 nM his-tagged IGSF11 ECD, complexes added to immobilised VSIR-Fc, bound IGSF11 detected with anti-hexahistidine-HRP; blocked ligand: VSIR-Fc
# [17] = target: T2, extracellular domain (ECD) of human …; assay: as above; remark: listed apart in the source
# [18] = target: T2, extracellular domain (ECD) of human …; assay: ELISA: IGSF11-HIS coated, IgG1 antibody titrated, anti-human antibody-HRP and TMB; X-axis nM and Y-axis absorbance per legend paragraph 30; remark: listed apart in the source
# [19] = target: T3, A-015 (scFv-Fc format, mouse IgG2A Fc); assay: FACS on CD14-gated monocytes from PBMC of healthy donor A, 30 min at 4 C, fluorescently labelled secondary antibody
# T3 construct: scFv genetically fused to mouse IgG2A Fc, expressed in HEK293; also called scFv-Fc-format of antibody A-015; anti-IGSF11 scFv-Fc (mouse IgG2A)
# T3 sequence (VH, as listed by the source, chain 1 of 2): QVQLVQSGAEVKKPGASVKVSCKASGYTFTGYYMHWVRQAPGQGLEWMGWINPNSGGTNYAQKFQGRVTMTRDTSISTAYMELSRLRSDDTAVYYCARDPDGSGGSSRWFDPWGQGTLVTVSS
# T3 sequence (VL, as listed by the source, chain 2 of 2): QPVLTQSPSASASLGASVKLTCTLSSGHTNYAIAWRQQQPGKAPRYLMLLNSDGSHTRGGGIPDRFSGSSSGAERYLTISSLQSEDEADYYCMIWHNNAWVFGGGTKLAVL
percentage binding [1],EC50 [2],percentage binding [3],percentage binding [4],percentage binding [5],percentage binding [6],Kd [7],EC50 (read off the curve) [8],IC50 (read off the curve) [9],EC50 [10],percentage binding [11],IC50 (read off the curve) [16],Binder,also measured
4.54%,10 to 50 nM,3%,8.68%,80.1%,2.77%,100 to 250 nM,~0.01 nM,~4 nM,> 50 nM,70.7%,,"B-002 (chain-swapped, human IgG1 format) (antibody, V domains shown, VH of A-006 with VL of A-012; IgG1 format; also called B2; Chains-B-002) VH: EVQLVESGGGLIQPGGSLRLSCAASGFTVSSNYMSWVRQAPGKGLEWVSVIYSGGSTYYADSVKGRFTISRDNSKNTLYLQMNSLRAEDTAVYYCARGNPYYYGDLQVNFDYWGQGTLVTVSS VL: QAVVTQEPSLTVSPGGTVTLTCASSTGAVTSGYYPNWFQQKPGQAPRALIYSTSNKHSWTPARFSGSLLGGKAALTLSGVQPEDEAEYYCLLYYGGAWVFGGGTKLTVL",
3.93%,10 to 50 nM,5.11%,4.77%,75.8%,2.35%,,,,10 to 50 nM,65.4%,~2 nM,"A-012 (human IgG1 format) (antibody, V domains shown, human IgG1 format) VH: EVQLLESGGGLIQPGGSLRLSCAVSGFTVSSNYMSWVRQAPGKGLEWVSVIYSGGSTYYADSVKGRFTISRDNSKNTLYLQMNSLRAEDTAVYYCARGNPYYYGDLQVNFDYWGQGTLVTVSS VL: QAVVTQEPSLTVSPGGTVTLTCASSTGAVTSGYYPNWFQQKPGQAPRALIYSTSNKHSWTPARFSGSLLGGKAALTLSGVQPEDEAEYYCLLYYGGAWVFGGGTKLTVL",Kd [12]: 1 to 10 nM; EC50 (read off the curve) [13]: ~0.008 nM; Kd [14]: 250 to 500 nM; EC50 [15]: 0.02 to 0.05 nM
,,,,,,,~0.02 nM,~5 nM,,,,"B-004 (chain-swapped, human IgG1 format) (antibody, V domains shown, VH of A-012 with VL of A-006; IgG1 format; also called B4; Chains-B-004) VH: EVQLLESGGGLIQPGGSLRLSCAVSGFTVSSNYMSWVRQAPGKGLEWVSVIYSGGSTYYADSVKGRFTISRDNSKNTLYLQMNSLRAEDTAVYYCARGNPYYYGDLQVNFDYWGQGTLVTVSS VL: QAVVTQEPSLTVSPGGTVTLTCASSTGAVTSGYYPNWFQQKPGQAPRPLIYSTSNKHSWTPARFSGSLLGGKAALTLSGVQPDDEAEYYCLLYYGGDWVFGGGTKLTVL",
,10 to 50 nM,,,,,250 to 500 nM,,,,,~2 nM,"B-001 (chain-swapped, human IgG1 format) (antibody, V domains shown, VH of A-012 with VL of A-013; IgG1 format; also called B1; Chains-B-001) VH: EVQLLESGGGLIQPGGSLRLSCAVSGFTVSSNYMSWVRQAPGKGLEWVSVIYSGGSTYYADSVKGRFTISRDNSKNTLYLQMNSLRAEDTAVYYCARGNPYYYGDLQVNFDYWGQGTLVTVSS VL: QAVVTQEPSLTVSPGGTVTLTCASSTGAVTSAYYPNWFQQKPGQAPRALIYSTSNKHSWTPARFSGSLLGGKAALTLSGVQPEDEADYYCLLYYGGAWVFGGGTKLTVL",
,,,,,,,,,,,,"B-006 (chain-swapped, human IgG1 format) (antibody, V domains shown, VH of A-006 with VL of A-005; IgG1 format; also called B6; Chains-B-006) VH: EVQLVESGGGLIQPGGSLRLSCAASGFTVSSNYMSWVRQAPGKGLEWVSVIYSGGSTYYADSVKGRFTISRDNSKNTLYLQMNSLRAEDTAVYYCARGNPYYYGDLQVNFDYWGQGTLVTVSS VL: QAVVTQEPSLTVSPGETVTLTCASSTGAVTSGYYPNWFQQRPGQAPRALIYSTSNKDSWTPARFSGSLLGGKAALTLSGVQPEDEAEYYCLLYYGGAWVFGGGTKLTVL",IC50 (read off the curve) [17]: ~5 nM; EC50 (read off the curve) [18]: ~0.02 nM
,,,,,,,,,,,,B1,binding result [19]: binds
